The text below walks through data of paper PMC12607626, “Separation of Pseudomonas aeruginosa type IV pilus-dependent twitching motility and surface-sensing responses” (mBio, 2025).

The data set deals with the molecule itself. The data set can be described thus: crystal structure; X-ray, 4.5 Å; sitting-drop vapour diffusion at 20 °C; 12.5 µM ATP in the final buffer, no nucleotide density; four protomers in the asymmetric unit, two nearly identical C3 hexamers identified from the crystal packing.

B1: PilU (Pseudomonas aeruginosa type IVa pilus retraction ATPase paralog of PilT) (enzyme)
chain: MEFEKLLRLMVEKGGSDLFITAGVPPSMKVNGRVMPVTKTPLSPEQTRETVLGVMNEQQRRDFAENHECNFAISARGIGRFRVSAFYQRNLVGMVLRRIETNIPTLEELKLPEILKKLALTKRGLVIFVGATGTGKSTSLAAMIGYRNKNSTGHIISIEDPIEYIHQHQGCIVTQREVGLDTDSFEVALKNTLRQAPDVIMIGEVRSRETMDHAVAFAETGHLCLATLHANNANQALERIIHFFPADRHGQVWMDLSLNLKAIVAQQLVPTPDGKGRRAVIEVLLNTPLAADLIRKGEVHELKPLMKRSTEQGMQTFDQALYQLYTQGEITYEDALAHADSANDLRLMIKLGSESDADHLSSLTQGLSLEITDDDPAGRRFR
notes: PilU, P. aeruginosa; the pilU gene was amplified by PCR and cloned into pET28a; the 30 C-terminal residues were not resolved in the crystal; also called PilU hexamer; source: E. coli BL21 (DE3), pET28a, purified (HiTrap Chelating HP, size-exclusion chromatography)
For B1, the “stoichiometry N” value came out at 6.

The stoichiometry N is the number of molecules, sites or subunits per partner or assembly.
